Reference: PMC5460766
Blank lines part the entries; values can stand above or below the substance they belong to.

Tests used:
Assay in all cases: ITC
[1] = biological target: NDD(MlnG)+MlnKR9 (Bacillus amyloliquefaciens FZB42) (UniProt A7Z476)
[2] = biological target: NDD(MlnD)+MlnKR4 (Bacillus amyloliquefaciens FZB42) (UniProt A7Z473)
[3] = biological target: NDD(MlnE)+MlnKR6 (Bacillus amyloliquefaciens FZB42) (UniProt A7Z474)

Kd [1]: 9 µM
Substance: MlnDH9+CDD(MlnF) (from UniProt A7Z475 1-1903) (domain or fragment)

Kd [2]: 1.8 µM
Substance: MlnDH4+CDD(MlnC) (from UniProt A7Z472 1-1590) (domain or fragment)

Kd [3]: 0.8 µM
Substance: MlnKS6+CDD(MlnD) (from UniProt A7Z473 1-2902) (domain or fragment)
